Measured values taken from patent US20250361274A1, “PEPTIDE AND PEPTIDE-CONTAINING AGENT” (PEPTIDREAM INC., priority 2022, published 2025).
Square brackets hold non-standard residues; d marks the D form. Ends that are not written are not given here. Phe(4-COOH) = N[C@@H](Cc1ccc(C(=O)O)cc1)C(=O)O; NMePhe(3-Cl) = CN[C@@H](Cc1cccc(Cl)c1)C(=O)O; NMePhe(4-Cl) = CN[C@@H](Cc1ccc(Cl)cc1)C(=O)O; NMePhe(3-Me) = CN[C@@H](Cc1cccc(C)c1)C(=O)O; NMePhe(4-Me) = CN[C@@H](Cc1ccc(C)cc1)C(=O)O; Bip = N[C@@H](Cc1ccc(-c2ccccc2)cc1)C(=O)O; Phe(3-Cl) = N[C@@H](Cc1cccc(Cl)c1)C(=O)O; Phe(4-Cl) = N[C@@H](Cc1ccc(Cl)cc1)C(=O)O; Phe(3-Me) = Cc1cccc(C[C@H](N)C(=O)O)c1; Phe(4-F) = N[C@@H](Cc1ccc(F)cc1)C(=O)O; Phe(4-Me) = Cc1ccc(C[C@H](N)C(=O)O)cc1; cisHyp = O=C(O)[C@@H]1C[C@H](O)CN1; NMeF = CN[C@@H](Cc1ccccc1)C(=O)O; Aad = N[C@@H](CCCC(=O)O)C(=O)O; Cha = N[C@@H](CC1CCCCC1)C(=O)O; MeY = Methyl-L-tyrosine; Abu = CC[C@H](N)C(=O)O

How the values were obtained:
BMP7 = biological target: T1, BMP7 (Homo sapiens, UniProt P18075); assay: BMP7 signal transduction inhibitory activity: SMAD1 phosphorylation by BMP7 stimulus, A549 cells; assay type: cell-based; conditions: BMP7 10 nM stimulus
T1 sequence (P18075 293-431): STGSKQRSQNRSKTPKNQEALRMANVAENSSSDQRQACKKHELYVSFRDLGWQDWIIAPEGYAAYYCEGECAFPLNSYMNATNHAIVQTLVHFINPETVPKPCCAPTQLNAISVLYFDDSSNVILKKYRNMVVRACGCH
Outline: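 A549 cells were stimulated with 10 nM BMP7, and peptide inhibition of signalling was measured as SMAD1 phosphorylation. Peptides were tested at three concentrations, in sets ranging from 1–100 nM to 100–1,000 nM, or as eight-point 1/3 dilution series starting at 100 nM or 1,000 nM.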

BMP4 = biological target: T2, BMP4 (Homo sapiens, UniProt P12644); assay: BMP4 signal transduction inhibitory activity: SMAD1 phosphorylation by BMP4 stimulus, AlphaLISA SureFire, A549 cells; assay type: cell-based; conditions: BMP4 0.2 nM stimulus
T2 sequence (P12644 293-408): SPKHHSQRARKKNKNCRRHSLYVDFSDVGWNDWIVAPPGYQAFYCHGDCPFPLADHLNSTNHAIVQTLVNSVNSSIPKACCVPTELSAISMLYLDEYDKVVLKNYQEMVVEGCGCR

[1] = peptide conc. in assay 10, 30, 90 nM
[2] = peptide conc. in assay 2, 20, 200 nM
[3] = peptide conc. in assay 1, 10, 100 nM
[4] = peptide conc. in assay 0.2, 2, 20 nM

Substance | aLISA BMP7 (10 nM) % inh (BMP7; [1]) | aLISA BMP4 (0.2 nM) % inh (BMP4; [2]) | aLISA BMP7 (10 nM) % inh (BMP7; [3]) | aLISA BMP4 (0.2 nM) % inh (BMP4; [4])
379 (FG[NMeF]G[Phe(3-Cl)]GDD[Cha]A[NMeF]LHCG-NH2; not fully specified) [compound 379] | G (showed less than 30% of inhibitory activity in 30 nM-addition zone and showed 30% or more of inhibitory activity in 90 nM-addition zone) | ND (the inhibitory activity was less than 30% at the maximum concentration evaluated) |  | 
380 (FG[NMeF]G[Phe(4-Cl)]GDD[Cha]A[NMeF]LHCG-NH2; not fully specified) [compound 380] | F (showed less than 30% of inhibitory activity in 10 nM-addition zone and showed 30% or more of inhibitory activity in 30 nM-addition zone) | B (showed less than 30% of inhibitory activity in 20 nM-addition zone and showed 30% or more of inhibitory activity in 200 nM-addition zone) |  | 
381 (FG[NMeF]G[Phe(3-Me)]GDD[Cha]A[NMeF]LHCG-NH2; not fully specified) [compound 381] | G (showed less than 30% of inhibitory activity in 30 nM-addition zone and showed 30% or more of inhibitory activity in 90 nM-addition zone) | ND (the inhibitory activity was less than 30% at the maximum concentration evaluated) |  | 
382 (FG[NMeF]G[Phe(4-Me)]GDD[Cha]A[NMeF]LHCG-NH2; not fully specified) [compound 382] | G (showed less than 30% of inhibitory activity in 30 nM-addition zone and showed 30% or more of inhibitory activity in 90 nM-addition zone) | ND (the inhibitory activity was less than 30% at the maximum concentration evaluated) |  | 
383 (FG[NMeF]GYGDD[Cha]A[NMeF]LHCG-NH2; not fully specified) [compound 383] | F (showed less than 30% of inhibitory activity in 10 nM-addition zone and showed 30% or more of inhibitory activity in 30 nM-addition zone) | ND (the inhibitory activity was less than 30% at the maximum concentration evaluated) |  | 
384 (FG[NMePhe(3-Cl)]G[Bip]GDD[Cha]A[NMeF]LHCG-NH2; not fully specified) [compound 384] | E (showed 30% or more of inhibitory activity in 10 nM-addition zone) | B (showed less than 30% of inhibitory activity in 20 nM-addition zone and showed 30% or more of inhibitory activity in 200 nM-addition zone) |  | 
385 (FG[NMePhe(4-Cl)]G[Bip]GDD[Cha]A[NMeF]LHCG-NH2; not fully specified) [compound 385] | F (showed less than 30% of inhibitory activity in 10 nM-addition zone and showed 30% or more of inhibitory activity in 30 nM-addition zone) | B (showed less than 30% of inhibitory activity in 20 nM-addition zone and showed 30% or more of inhibitory activity in 200 nM-addition zone) |  | 
386 (FG[NMePhe(3-Me)]G[Bip]GDD[Cha]A[NMeF]LHCG-NH2; not fully specified) [compound 386] | F (showed less than 30% of inhibitory activity in 10 nM-addition zone and showed 30% or more of inhibitory activity in 30 nM-addition zone) | B (showed less than 30% of inhibitory activity in 20 nM-addition zone and showed 30% or more of inhibitory activity in 200 nM-addition zone) |  | 
387 (FG[MeY]G[Bip]GDD[Cha]A[NMeF]LHCG-NH2; not fully specified) [compound 387] | F (showed less than 30% of inhibitory activity in 10 nM-addition zone and showed 30% or more of inhibitory activity in 30 nM-addition zone) | A (showed less than 30% of inhibitory activity in 2 nM-peptide-addition zone and showed 30% or more of inhibitory activity in 20 nM-addition zone) |  | 
388 (FG[NMeF]G[Bip]GDD[Cha]A[NMePhe(3-Cl)]LHCG-NH2; not fully specified) [compound 388] | E (showed 30% or more of inhibitory activity in 10 nM-addition zone) | B (showed less than 30% of inhibitory activity in 20 nM-addition zone and showed 30% or more of inhibitory activity in 200 nM-addition zone) |  | 
389 (FG[NMeF]G[Bip]GDD[Cha]A[NMePhe(4-Cl)]LHCG-NH2; not fully specified) [compound 389] | E (showed 30% or more of inhibitory activity in 10 nM-addition zone) | B (showed less than 30% of inhibitory activity in 20 nM-addition zone and showed 30% or more of inhibitory activity in 200 nM-addition zone) |  | 
390 (FG[NMeF]G[Bip]GDD[Cha]A[NMePhe(3-Me)]LHCG-NH2) [compound 390] | E (showed 30% or more of inhibitory activity in 10 nM-addition zone) | B (showed less than 30% of inhibitory activity in 20 nM-addition zone and showed 30% or more of inhibitory activity in 200 nM-addition zone) |  | 
391 (FG[NMeF]G[Bip]GDD[Cha]AYLHCG-NH2; not fully specified (residue 11)) [compound 391] | F (showed less than 30% of inhibitory activity in 10 nM-addition zone and showed 30% or more of inhibitory activity in 30 nM-addition zone) | A (showed less than 30% of inhibitory activity in 2 nM-peptide-addition zone and showed 30% or more of inhibitory activity in 20 nM-addition zone) |  | 
392 ([Phe(4-F)]G[NMeF]G[Bip]GDD[Cha]A[NMeF]LHCG-NH2; not fully specified) [compound 392] |  |  | D (showed less than 30% of inhibitory activity in 10 nM-addition zone and showed 30% or more of inhibitory activity in 100 nM-addition zone) | A (showed less than 30% of inhibitory activity in 2 nM-peptide-addition zone and showed 30% or more of inhibitory activity in 20 nM-addition zone)
393 (FG[NMePhe(4-Me)]G[Bip]GDD[Cha]A[NMeF]LHCG-NH2; not fully specified) [compound 393] |  |  | D (showed less than 30% of inhibitory activity in 10 nM-addition zone and showed 30% or more of inhibitory activity in 100 nM-addition zone) | A (showed less than 30% of inhibitory activity in 2 nM-peptide-addition zone and showed 30% or more of inhibitory activity in 20 nM-addition zone)
394 (FG[NMeF]G[Bip]GDD[Cha]A[NMePhe(4-Me)]LHCG-NH2; not fully specified) [compound 394] |  |  | D (showed less than 30% of inhibitory activity in 10 nM-addition zone and showed 30% or more of inhibitory activity in 100 nM-addition zone) | ND (the inhibitory activity was less than 30% at the maximum concentration evaluated)
395 ([Phe(4-F)]G[NMePhe(4-Me)]G[Bip]GDD[Cha]A[NMeF]LHCG-NH2; not fully specified) [compound 395] |  |  | D (showed less than 30% of inhibitory activity in 10 nM-addition zone and showed 30% or more of inhibitory activity in 100 nM-addition zone) | A (showed less than 30% of inhibitory activity in 2 nM-peptide-addition zone and showed 30% or more of inhibitory activity in 20 nM-addition zone)
396 ([Phe(4-F)]G[NMeF]G[Bip]GDD[Cha]A[NMePhe(4-Me)]LHCG-NH2; not fully specified) [compound 396] |  |  | C (showed less than 30% of inhibitory activity in a zone to which the peptide was added in an amount of 1 nM and showed 30% or more of inhibitory activity in 10 nM-addition zone) | A (showed less than 30% of inhibitory activity in 2 nM-peptide-addition zone and showed 30% or more of inhibitory activity in 20 nM-addition zone)
397 (FG[NMePhe(4-Me)]G[Bip]GDD[Cha]A[NMePhe(4-Me)]LHCG-NH2; not fully specified) [compound 397] |  |  | D (showed less than 30% of inhibitory activity in 10 nM-addition zone and showed 30% or more of inhibitory activity in 100 nM-addition zone) | ND (the inhibitory activity was less than 30% at the maximum concentration evaluated)
398 ([Phe(4-F)]G[NMePhe(4-Me)]G[Bip]GDD[Cha]A[NMePhe(4-Me)]LHCG-NH2; not fully specified) [compound 398] |  |  | D (showed less than 30% of inhibitory activity in 10 nM-addition zone and showed 30% or more of inhibitory activity in 100 nM-addition zone) | A (showed less than 30% of inhibitory activity in 2 nM-peptide-addition zone and showed 30% or more of inhibitory activity in 20 nM-addition zone)
399 (FG[NMeF]G[Bip]GDE[Cha]Q[NMeF]L[Abu]CG-NH2; not fully specified) [compound 399] |  |  | C (showed less than 30% of inhibitory activity in a zone to which the peptide was added in an amount of 1 nM and showed 30% or more of inhibitory activity in 10 nM-addition zone) | ND (the inhibitory activity was less than 30% at the maximum concentration evaluated)
400 (FG[NMeF]G[Bip]GDE[Cha]Q[NMeF]L[cisHyp]CG-NH2) [compound 400] |  |  | C (showed less than 30% of inhibitory activity in a zone to which the peptide was added in an amount of 1 nM and showed 30% or more of inhibitory activity in 10 nM-addition zone) | ND (the inhibitory activity was less than 30% at the maximum concentration evaluated)
401 (FG[NMeF]G[Bip]GDE[Cha][Aad][NMeF]L[Phe(4-COOH)]CG-NH2; not fully specified) [compound 401] |  |  | C (showed less than 30% of inhibitory activity in a zone to which the peptide was added in an amount of 1 nM and showed 30% or more of inhibitory activity in 10 nM-addition zone) | ND (the inhibitory activity was less than 30% at the maximum concentration evaluated)
